For test [1], the target named is HSP70 (human HSP70; the antigen of the binning, humanization and variant binding assays) (human) (UniProt P0DMV8). Nature of the test: Octet epitope binning, sandwich format; cell row N15F2-5 / column C92F3-5; the sheet does not say whether rows or columns are the first antibody. On the technique in general: Biolayer interferometry detects binding as a change in optical thickness at a sensor tip.

The target is the same in test [2]. As to the kind of experiment: Octet epitope binning, sandwich format; cell row N15F2-5 / column N15F2-5; the sheet does not say whether rows or columns are the first antibody.
The target is the same in test [3]. Nature of the test: Octet epitope binning, sandwich format; cell row N15F2-5 / column m77A; the sheet does not say whether rows or columns are the first antibody.
The target is the same in test [4]. As to the kind of experiment: Octet epitope binning, sandwich format (first antibody on the sensor, then HSP70, then second antibody); cell row C92F3-5 / column C92F3-5; the sheet does not say whether rows or columns are the first antibody.
For test [5] the target is unchanged. Nature of the test: Octet epitope binning, sandwich format; cell row C92F3-5 / column m77A; the sheet does not say whether rows or columns are the first antibody.
For test [6] the target is unchanged. Nature of the test: Octet epitope binning, sandwich format; cell row C92F3-5 / column N15F2-5; the sheet does not say whether rows or columns are the first antibody.

Sequence of HSP70 (human HSP70; the antigen of the binning, humanization and variant binding assays) (human) (P0DMV8 whole entry, change not shown): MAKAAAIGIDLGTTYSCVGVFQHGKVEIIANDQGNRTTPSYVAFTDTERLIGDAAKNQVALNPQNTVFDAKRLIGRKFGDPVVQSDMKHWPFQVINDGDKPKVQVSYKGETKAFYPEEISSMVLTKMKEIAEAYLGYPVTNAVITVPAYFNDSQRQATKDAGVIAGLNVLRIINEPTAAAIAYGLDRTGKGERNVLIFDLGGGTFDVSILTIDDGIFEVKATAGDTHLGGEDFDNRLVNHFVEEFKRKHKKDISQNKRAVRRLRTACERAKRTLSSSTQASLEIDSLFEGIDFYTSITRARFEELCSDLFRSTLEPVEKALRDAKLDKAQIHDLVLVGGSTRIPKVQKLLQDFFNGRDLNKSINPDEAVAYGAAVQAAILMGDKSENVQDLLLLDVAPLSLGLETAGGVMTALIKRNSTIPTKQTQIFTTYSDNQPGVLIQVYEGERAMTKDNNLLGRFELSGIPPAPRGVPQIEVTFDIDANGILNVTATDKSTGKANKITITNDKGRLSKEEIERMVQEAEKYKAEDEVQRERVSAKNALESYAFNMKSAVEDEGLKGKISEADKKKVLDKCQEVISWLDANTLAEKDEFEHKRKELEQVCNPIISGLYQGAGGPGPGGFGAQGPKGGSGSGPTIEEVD

For “N15F2-5 (Enzo Life Sciences) anti-HSP70 antibody”, the maximal binding in the presence of the potentially competing antibody (given as a fraction; legend: percent) in test [1] was determined as 0.492; in test [2], 0; in test [3] it was 0.761.
On to “C92F3-5 (Fisher Scientific) anti-HSP70 antibody”, for which the maximal binding in the presence of the potentially competing antibody (given as a fraction; legend: percent) in test [4] was found to be 0; in test [5] it was 0.781; in test [6] it was 0.489.
